Publication PMC8571288 (Nature Communications, 2021)

Experiments:
[1] = molecular target: T1, CTC1Δ700N-ST complex (CTC1 lacking its N-terminal 700 residues, with STN1 and TEN1-His6) (human, UniProt Q2NKJ3 701-1217; Q9H668 1-368; Q86WV5 1-123); experiment: pull-down; 1 μM CST or CTC1Δ700N-ST (His6 on TEN1) with 1 μM RAD51, RecA or RPA, 20 min 37 °C, buffer D (35 mM Tris-HCl pH 7.5, 10% glycerol, 0.01% Igepal, 1 mM 2-mercaptoethanol) with 5 mM imidazole and 50 mM KCl; for RPA without DNA or with 2 μM 30-nt ssDNA; captured on His-Tag Dynabeads; SDS-PAGE, Coomassie; conditions: both partners purified
T1 construct: CTC1, human, with the N-terminal 700 residues removed (CTC1Δ700N); STN1, human, subunit of the CST complex; TEN1, human, subunit of the CST complex; also called CTC1∆700N-ST; not shown: His6, C-terminal, kept; copies: + +
T1 sequence (looked up) 1: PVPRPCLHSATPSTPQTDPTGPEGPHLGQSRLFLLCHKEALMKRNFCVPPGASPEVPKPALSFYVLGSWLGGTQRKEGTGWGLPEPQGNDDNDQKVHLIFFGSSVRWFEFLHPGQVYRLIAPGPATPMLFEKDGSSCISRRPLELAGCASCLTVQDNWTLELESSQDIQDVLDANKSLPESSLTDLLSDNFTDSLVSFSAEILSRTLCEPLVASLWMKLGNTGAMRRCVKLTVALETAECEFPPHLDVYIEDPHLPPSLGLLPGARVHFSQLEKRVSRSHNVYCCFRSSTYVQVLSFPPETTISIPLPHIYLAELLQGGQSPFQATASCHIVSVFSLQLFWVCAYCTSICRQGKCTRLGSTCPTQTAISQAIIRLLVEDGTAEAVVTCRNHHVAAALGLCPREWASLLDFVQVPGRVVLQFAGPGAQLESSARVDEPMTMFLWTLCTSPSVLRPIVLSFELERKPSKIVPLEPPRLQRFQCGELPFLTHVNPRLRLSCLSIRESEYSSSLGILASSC
T1 sequence (looked up) 2: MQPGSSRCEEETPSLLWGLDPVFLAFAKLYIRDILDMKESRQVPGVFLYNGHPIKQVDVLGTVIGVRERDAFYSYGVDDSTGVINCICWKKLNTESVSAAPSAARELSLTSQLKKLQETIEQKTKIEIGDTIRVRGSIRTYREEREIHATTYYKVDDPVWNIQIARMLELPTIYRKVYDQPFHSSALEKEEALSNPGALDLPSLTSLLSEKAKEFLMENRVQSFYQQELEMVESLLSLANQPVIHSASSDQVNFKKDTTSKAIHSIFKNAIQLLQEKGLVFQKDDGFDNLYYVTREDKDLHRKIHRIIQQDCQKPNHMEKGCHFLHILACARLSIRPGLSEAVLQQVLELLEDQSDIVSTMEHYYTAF
T1 sequence (looked up) 3: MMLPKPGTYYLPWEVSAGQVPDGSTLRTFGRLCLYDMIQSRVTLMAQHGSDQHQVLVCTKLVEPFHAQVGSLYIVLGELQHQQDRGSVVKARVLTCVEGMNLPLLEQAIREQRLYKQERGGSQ

[2] = molecular target: T2, human CST complex (Flag-CTC1-STN1-TEN1-His6) (human, UniProt Q2NKJ3 1-1217; Q9H668 1-368; Q86WV5 1-123); experiment: as above; conditions: both partners purified
T2 construct: CTC1, human, subunit of the CST complex; STN1, human, subunit of the CST complex; TEN1, human, subunit of the CST complex; also called wild-type CST; not shown: Flag, N-terminal, kept; His6, C-terminal, kept; copies: + +

binding result [1]: binds | binding result [2]: binds
B1: human RAD51 (natural protein, UniProt Q06609 1-339, looked up)
chain: MAMQMQLEANADTSVEEESFGPQPISRLEQCGINANDVKKLEEAGFHTVEAVAYAPKKELINIKGISEAKADKILAEAAKLVPMGFTTATEFHQRRSEIIQITTGSKELDKLLQGGIETGSITEMFGEFRTGKTQICHTLAVTCQLPIDRGGGEGKAMYIDTEGTFRPERLLAVAERYGLSGSDVLDNVAYARAFNTDHQTQLLYQASAMMVESRYALLIVDSATALYRTDYSGRGELSARQMHLARFLRMLLRLADEFGVAVVITNQVVAQVDGAAMFAADPKKPIGGNIIAHASTTRLYLRKGRGETRICKIYDSPCLPEAEAMFAINADGVGDAKD
notes: RAD51 recombinase, human
